Source: patent publication US6541212

Molecular target: T1, recombinant secreted soluble PSCA with a C-terminal 6XHis and MYC tag (human) (UniProt O43653)
T1 sequence: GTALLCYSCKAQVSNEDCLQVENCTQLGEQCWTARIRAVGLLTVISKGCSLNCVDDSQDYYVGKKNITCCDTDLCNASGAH
Assay: SPR (BIAcore), recombinant PSCA immobilized at 30 RU, mAb in solution

Kd: 1 nM
kon: 168000 M⁻¹ s⁻¹
B1: anti-PSCA monoclonal antibody 1G8 (antibody, part only; not given: light chain, V domains shown, part only)
VH: CFFLMAVVIGVNSEVQLQQSGAELVRSGASVKLSCTASGFNIKDYYIHWVNQRPDQGLEWIGWIDPENGDTEFVPKFQGKATMTADIFSNTAYLHLSSLTSEDTAVYYCKTGGFWGQGTLVTVSAAKTTPPSVYPL
